From US20210238276A1 (INTEGRAL MOLECULAR, published 2021)
Where a chain is given by its changes, count along the chain named.

Key:
Assay in all cases: flow cytometry, alanine-scan library in HEK-293T, with cytochalasin B
hsGLUT4 Y502A = molecular target: T1, hsGLUT4 Y502A (human, UniProt P14672 1-509)
T1 sequence: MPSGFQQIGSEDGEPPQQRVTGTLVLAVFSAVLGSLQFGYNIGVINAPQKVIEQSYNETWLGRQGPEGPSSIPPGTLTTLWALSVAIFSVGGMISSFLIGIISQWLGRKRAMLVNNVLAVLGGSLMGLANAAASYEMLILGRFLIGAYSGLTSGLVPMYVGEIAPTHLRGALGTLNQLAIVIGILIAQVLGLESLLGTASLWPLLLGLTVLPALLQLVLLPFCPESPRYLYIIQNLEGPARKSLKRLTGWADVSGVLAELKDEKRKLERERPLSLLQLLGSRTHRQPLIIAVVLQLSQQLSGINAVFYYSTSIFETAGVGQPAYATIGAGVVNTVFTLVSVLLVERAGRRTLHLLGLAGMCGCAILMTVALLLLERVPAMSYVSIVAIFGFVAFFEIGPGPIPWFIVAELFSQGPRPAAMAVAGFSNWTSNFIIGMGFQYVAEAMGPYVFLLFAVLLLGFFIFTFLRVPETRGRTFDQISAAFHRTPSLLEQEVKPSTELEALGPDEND
Outline: (§1)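 HEK-293T cells expressing individual GLUT4 alanine mutants were stained 48 h post-transfection with anti-GLUT4 scFv MAbs (2 μg/ml), then biotinylated secondary and streptavidin-PerCP, and read by high-throughput flow cytometry. Where used, cytochalasin B (10 uM final) was given for 30 min before and during primary antibody staining.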

hsGLUT4 G414A = molecular target: T2, hsGLUT4 G414A (human, UniProt P14672 1-509)
T2 sequence: T1 sequence with G414A, A502Y
Outline: as §1

hsGLUT4 L247A = molecular target: T3, hsGLUT4 L247A (human, UniProt P14672 1-509)
T3 sequence: T1 sequence with L247A, A502Y
Outline: as §1

hsGLUT4 N304A = molecular target: T4, hsGLUT4 N304A (human, UniProt P14672 1-509)
T4 sequence: T1 sequence with N304A, A502Y
Outline: as §1

% of binding to wild type GLUT4 (hsGLUT4 Y502A): 94% | % of binding to wild type GLUT4 (hsGLUT4 G414A): 23% | % of binding to wild type GLUT4 (hsGLUT4 L247A): 15% | % of binding to wild type GLUT4 (hsGLUT4 N304A): 112%
B1: AB102 (Fc fusion)
scFv: ALTQPSSVSANLGGTVKITCSGGGSYGYGWYQQKSPGSAPVTVIYSNDQRPSDIPSRFSGSKSGSTATLTITGVRAEDEAIYYCGSTDSDYVGIFGAGTTLTVLGQSSRSSGGGGSSGGGGSAVTLDESGGGLQTPGGTLSLVCKASGFDFSSYATIWVRQAPGKGLEWVAGISGTGTGSSTGYAPAVKGRATISRDNGQSTVRLQLNNLRAEDTGSYFCAKSTGYGDSWIYPDSIDAWGHGTEVIVSS
notes: also called MAb AB102; not shown: Fc fragment of human IgG1, cloned in frame with the scFv
